According to patent US20140178384A1 (INSTITUT PASTEUR, published 2014):

Biological target: T1, p75 neurotrophin receptor on rat embryonic motor neurons (rat, UniProt P07174 30-425)
T1 sequence (looked up): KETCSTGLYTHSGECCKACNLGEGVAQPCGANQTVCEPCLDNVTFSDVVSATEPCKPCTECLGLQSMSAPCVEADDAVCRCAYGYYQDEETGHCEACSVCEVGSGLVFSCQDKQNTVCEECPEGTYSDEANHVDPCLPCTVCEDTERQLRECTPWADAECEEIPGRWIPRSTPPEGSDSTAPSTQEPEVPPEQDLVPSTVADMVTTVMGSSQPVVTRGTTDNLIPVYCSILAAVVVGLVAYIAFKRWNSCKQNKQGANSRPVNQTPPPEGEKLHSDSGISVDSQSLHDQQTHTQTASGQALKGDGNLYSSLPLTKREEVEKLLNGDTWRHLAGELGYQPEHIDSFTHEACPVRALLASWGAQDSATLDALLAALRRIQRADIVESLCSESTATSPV
Experiment: cell-based or functional assay

B1: peroxynitrite-treated NGF (mouse NGF nitrated by peroxynitrite) (ligand)
chain: SSTHPVFHMGEFSVCDSVSVWVGDKTTATDIKGKEVTVLAEVNINNSVFRQYFFETKCRASNPVESGCRGIDSKHWNSYCTTTHTFVKALTTDEKQAAWRFIRIDTACVCVLSRKATR
modifications: nitro groups on Tyr52 and Trp99 (the species identified by mass spectrometry); up to five nitro groups and methionine oxidation suggested
fold increase of apoptotic activity against native NGF: 10000 fold
